Drawing on patent publication US20090041770A1, this text covers Medan Fold Increase, FcRn Binding Fold-Increase and FcRn Binding ratio Variant / WT for 44 substances.

Assay [1] addresses human FcRn fused to a His-tag and glutathione S transferase (FcRn-His-GST), complex of FcRn heavy chain with beta-2-microglobulin (human) (UniProt P55899). Description: AlphaScreen competition, 25 mM NaCl. A general note: In Alpha technology, singlet oxygen from a donor bead excites a nearby acceptor bead.
Assay [2] shares this target. Description: AlphaScreen competition, […] NaCl.
Assay [3] has the same target. Description: AlphaScreen competition.

P257N/^281S (antibody): the Medan Fold Increase in assay [1] stood at 5.99. ^281T (antibody) displayed a Medan Fold Increase in assay [1] of 0.56. Same read-out and setting: the result for ^281S/V308F (antibody) reads 2.13.

In turn, P257L AC10 - IgG1 (antibody) yielded a FcRn Binding Fold-Increase in assay [2] of 44. As to ^281D (antibody), the Medan Fold Increase in assay [1] amounted to 0.89. Substance V308F AC10 - IgG1 (antibody) yielded a FcRn Binding Fold-Increase in assay [2] of 46.1. As for I332Q (antibody), the FcRn Binding ratio Variant / WT in assay [3] was determined as 1.2.

On to N286Y (antibody), for which, in assay [3], the FcRn Binding ratio Variant / WT worked out at 1.45. In the case of P230E (antibody), in assay [3], the FcRn Binding ratio Variant / WT is 1.01. On the same count and under the same terms, the result for L234I (antibody) reads 1.26; that for L328E/I332E (antibody), 1.44. As to P227G (antibody), in assay [3], the FcRn Binding ratio Variant / WT turned out to be 1.67. For T260H (antibody), the FcRn Binding ratio Variant / WT in assay [3] came out at 7.3.

Consider L328A (antibody), for which the FcRn Binding ratio Variant / WT in assay [3] was 1.32. On to E333F (antibody), for which the FcRn Binding ratio Variant / WT in assay [3] worked out at 1.96. The same measure, in the same setting: under S239D/E272S/I332E (antibody) stands 1.49; under S239E/V264I/I332E (antibody), 2.71; under Y278S (antibody), 1.23. Consider T299H (antibody), for which, in assay [3], the FcRn Binding ratio Variant / WT amounted to 2.03. Same read-out and setting: the result for E269V (antibody) reads 1.38. As for K274N (antibody), the FcRn Binding ratio Variant / WT in assay [3] worked out at 1.26. Still for that read-out and setting: the result for T335I (antibody) reads 1.41; that for G237Y (antibody), 1.92; that for T223K (antibody), 2.97. Still for that read-out and setting: the result for T335H (antibody) reads 1.16; that for G237H (antibody), 1.48; that for D270I (antibody), 1.23. As for H285W (antibody), the FcRn Binding ratio Variant / WT in assay [3] was 1.33.

Consider Q295T (antibody), for which the FcRn Binding ratio Variant / WT in assay [3] came out at 3.82. As to S239D/I332D (antibody), the FcRn Binding ratio Variant / WT in assay [3] stood at 1.12.

In the case of E333L (antibody), the FcRn Binding ratio Variant / WT in assay [3] was 1.03. On the same count and under the same terms, under “S239E/V264I/S298A/A330Y/I332E (antibody)” stands 10.1; under G236E (antibody), 1.46. As to D265F/N297E/I332E (antibody), the FcRn Binding ratio Variant / WT in assay [3] was 1.38. As for L234H (antibody), in assay [3], the FcRn Binding ratio Variant / WT is 1.48. Same read-out and setting: under P291Q (antibody) stands 1.24; under G237P (antibody), 2.8; under P271S (antibody), 1.14. Take L234F (antibody): the FcRn Binding ratio Variant / WT in assay [3] turned out to be 1.46.

Consider L328W (antibody), for which, in assay [3], the FcRn Binding ratio Variant / WT was 1.35. Still for that read-out and setting: under F243W (antibody) stands 4.63.

Regarding A327D (antibody), the FcRn Binding ratio Variant / WT in assay [3] stood at 1.01. On the same count and under the same terms, under G237K (antibody) stands 1.47. The substance ^281S/V308Y (antibody) displayed a Medan Fold Increase in assay [1] of 1.46.
